Experimental data as given in paper PMC8633780.

Molecular target: EstN7, cold active family IV (hormone sensitive lipase family) esterase from Bacillus cohnii strain N1 (Bacillus cohnii strain N1)
Assay: SEC; size exclusion chromatography of purified EstN7 in solution (supplementary figure S1)

Substance: EstN7, cold active family IV (hormone sensitive lipase family) esterase from Bacillus cohnii strain N1 (enzyme)
- stoichiometry N: 2
